Results published in the supplement of paper PMC12455559.
± gives the standard deviation of the averaged measurements.

Legend:
[1] = PET hydrolysis, aromatic products released after 48 h (umol product/mg enzyme); higher = more PET depolymerization activity
How it was run: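 The measure of PET hydrolysis activity is aromatic product released into the supernatant, given per mg enzyme. Nickel-purified, SUMO-cleaved enzyme without tag was added at 5 μg (50 μL) to 3.5 mg amorphous PET film or crystalline PET powder in 450 μL of citrate, phosphate or glycine buffer spanning pH 4.5 to 8.5. After 48 h at 40 or 60 °C in sealed plates without shaking, absorbance at 260 and 280 nm was taken against buffer blanks.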

[2] = purified protein yield per well (BCA); higher = higher soluble expression
How it was run: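 Each candidate enzyme was grown in E. coli C41(DE3) in a 2 mL autoinduction culture (100 µg/mL kanamycin; 2 h at 37 °C, then 40 h at 18 °C) and purified robotically via Ni-charged magnetic beads with SUMO protease cleavage. Purified protein yield per well was assessed using the Pierce Rapid Gold BCA kit. Readings below 25 ug (0.1 mg/mL) are beneath the detection threshold.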

[3] = melting temperature (DSF); higher = more thermostable
How it was run: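 On a Bio-Rad CFX96, fluorescence of 45 μL enzyme (0 to 0.3 mg/mL) mixed with 5 μL 5X Sypro Orange in sealed PCR plates was followed from 25 °C through 250 cycles of 0.3 °C, with a 0.3 °C/s ramp. The enzymes had been expressed in E. coli C41(DE3), taken up on nickel beads and released by SUMO protease. Melting temperature, measured by differential scanning fluorimetry, is the value given.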

[4] = substrate: cryPow, 40 °C, pH 5.5
[5] = substrate: cryPow, 40 °C, pH 6.5
[6] = substrate: cryPow, 40 °C, pH 7.5
[7] = substrate: cryPow, 40 °C, pH 8.5
[8] = substrate: cryPow, 60 °C, pH 5.5
[9] = substrate: cryPow, 60 °C, pH 6.5
[10] = substrate: cryPow, 60 °C, pH 7.5
[11] = substrate: cryPow, 60 °C, pH 8.5
[12] = substrate: aFilm, 40 °C, pH 5.5
[13] = substrate: aFilm, 40 °C, pH 6.5
[14] = substrate: aFilm, 40 °C, pH 7.5
[15] = substrate: aFilm, 60 °C, pH 5.5
[16] = substrate: aFilm, 60 °C, pH 6.5
[17] = substrate: aFilm, 60 °C, pH 7.5
[18] = substrate: aFilm, 40 °C, pH 4.5
[19] = substrate: aFilm, 60 °C, pH 4.5
[20] = substrate: cryPow, 40 °C, pH 4.5
[21] = substrate: cryPow, 60 °C, pH 4.5

| Sequence | PET hydrolysis [1, 4] | PET hydrolysis [1, 5] | PET hydrolysis [1, 6] | PET hydrolysis [1, 7] | PET hydrolysis [1, 8] | PET hydrolysis [1, 9] | PET hydrolysis [1, 10] | PET hydrolysis [1, 11] | purified protein yield per well [2] | melting temperature [3] | PET hydrolysis [1, 12] | PET hydrolysis [1, 13] | PET hydrolysis [1, 14] | PET hydrolysis ([1]; substrate: aFilm, 40 °C, pH 8.5) | PET hydrolysis [1, 15] | PET hydrolysis [1, 16] | PET hydrolysis [1, 17] | PET hydrolysis ([1]; substrate: aFilm, 60 °C, pH 8.5) | PET hydrolysis [1, 18] | PET hydrolysis [1, 19] | PET hydrolysis [1, 20] | PET hydrolysis [1, 21] |
| --- | --- | --- | --- | --- | --- | --- | --- | --- | --- | --- | --- | --- | --- | --- | --- | --- | --- | --- | --- | --- | --- | --- |
| ADNPYQRGPAPTAASISADTGPFATATTVAEGTGFGGATIYYPTDTSQGTFGAIGMLPGWTAPWSAYAWLGPRLASQGFVVIGVDTNDPNDYPAARATQVLAALDHLTESSAVRDRVDPDRLAVAGHSMGGGGSLEAALSRPSLKAVYGIEPYDDITSDFSNLTVPTFIQAGQDDTLVTPSYLESLYATLPSTSEHAYLEIAGADHMFVGSPNVILARTLISWMKIFVDDDTRYTQFLCPLSDDSGVSQYRNTCPLTPGGSTGSPTATAPSPPASSSNPPGTPSSPAPTDGTCRVTYTTNAWDSGLTASVTIANTGTTASTGWSLAFTLPDGQTITSGWNATYSPSSGQVTATGVSHNATIPAGESINIGFQATHTGDTGAPTTFALNGQTCTIT [DP021] | 5 | < 3 | < 3 | < 3 | < 3 | < 3 | < 3 | < 3 | 170 µg | 47.5 C |  |  |  |  |  |  |  |  |  |  |  |  |
| AGFEKGPDPTTASVTADRGSYDIAQVDVPKGSGTGFADGTIYYPKSTADGTFGAVAVIPGFLEPKSAIDWYGPRLASQGFVVMTLDTTSVFDTPDSRGGQLLAALDYLTSKSTVKDRIDPNRLAVVGHSMGGGGTLSAAANRPNLKAAVALAPWHVSAPLTSVKTPTMIFGSDNDFIAPDGTFAKPFYDGISNAPEKAYVRLKNAGHMAYVFPDKRIAEYTLSWLKRYVDDDTRYTQFLCPGPTNESTIAAYKSTCPM [DP093] | 4 | 1.5 ± 2.1 | < 3 | < 3 | < 3 | < 3 | < 3 | < 3 | 225 µg | 46.6 C | < 3 | < 3 | < 3 | < 3 | < 3 | < 3 | < 3 | < 3 |  |  |  |  |
| ADNPYQRGPDPTVASVAATNGPFATAQLNVPSGNGFNGGTIYYPTDTSLGTWGAVAIVPGYTARFANEEAWMGPRLASFGFVVIGVETNSTTDWDTARGTQLLAALDYLTQKSSVRDRVDASRLAVIGHSMGGGGVVYAASQRPSLKAAIGLAPYAPSGNLSNVKVPMLIQGGQNDTVVTPSYLDGLYPTLPSSTPGAYVQYSGADHLFWTKANNIELRTQIPWLKIFLDNDTRYTQFMCPTLKDTASVAKYSAKCSLIPSAGSTTAPTTQPATSAPATTSPTTQPPSQPG [TEP083] | 3 ± 4.2 | < 3 | < 3 |  | < 3 | < 3 | < 3 |  | 356 µg | 64.3 C | < 3 | < 3 | < 3 |  | < 3 | < 3 | < 3 |  | < 3 | < 3 | < 3 | < 3 |
| ADLLSQGRPVTASSTENASTPASAAVDGNTGTRWSSAFSDPQWLTVDLGTTATISRVVLRWETAYARRFQIQTSDDGTAWTTIHSATAGTGGVQTLDVTGSGRYVRVHGTQRGTAYGYSLWEFQVYGTRGTTPGEGIPDPSTASLEAAAGPLTTATYTVPDPSGYGSGTVTYPTAGGSYPGVVLMPGYQGTQQNLQWLAPRLASWGFVVLNVGTNTLTDDPASRGRQITAAGTQLLALGAATGNPLSGKVNGTLGAVGHSMGGGGVMAALRDDARFRAGVPTAPYYPNGNFSGVTDPTFFLTCQSDPVAHGNSYALPWYNSMSQSEKLYIEVPGDHLCPMTGSGDKAKQGKWIVSFLSHWLRADTRFTPFLCGPAREADKNDPSLVTRWMDTCPL [TEP036] | < 3 | < 3 | < 3 |  | < 3 | < 3 | < 3 |  | 230 µg | 51.4 C | < 3 | < 3 | < 3 |  | < 3 | < 3 | < 3 |  | < 3 | < 3 | < 3 | < 3 |
| RPASAQDNPYERGPAPTVSSVAAQRGTFATAELTVPPGNGFNGGKIYYPTDTSLGTWGAVAAVPGYTAKWAAEGAWMGPWLASFGFVVIGIDTNSPNDYDTARGTQLLAALDYLTQKSAVRDRVDPNRLGVIGHSMGGGGAISAAVRRPSLKAALPLAPFSPSQNLSTLRVPTVIMGARDDGTVTPSYLDGLYGGMPAGTQSAFIELSSGGHGFPTWGNSNVTRRMIPWLKIFLDNDTRYTQFLCPSLADTSGVSRSKLKCPYVPPGGTTPPPPSGGPIVGAASGRCLEVPNSSQTNGTQVQLWDCLDRAGQKWTRTAAGELRVYGTKCLDAEASGTSPGTRVVIWDCHGGQNQQWNVNSNGTITSARSGLCLDAYNAGTGNGTQGVLWNCNGGANQRWALG [TEP024] | 4.5 ± 0.71 | 11.5 ± 2.1 | 14.5 ± 0.71 |  | < 3 | < 3 | < 3 |  | 368 µg | 61 C | < 3 | < 3 | < 3 |  | < 3 | < 3 | < 3 |  | < 3 | < 3 | < 3 | < 3 |
| NPYERGPAPTTSSIEASRGSFATSTTTVSRLAVSGFGGGTIYYPTSTASGTFGAVSIAPGFTATQSSMAWLGPRLASQGFVVFTIDTITTSDQPDSRGRQLLSSLDYLTQQSSVRSRIDSSRLGVVGHSMGGGGTLEAARSRPSLQAAVPLTGWNLTKSWSTVRVPTLVVGAQADTVAPVASHSIPFYTSLPSSLDKAYLELRGASHFAPNSANTTIAKYTLSWLKRFIDDDTRYEQFLCPIPGTSTTISDYRGNCPHAG [ESM140] | 5 | 22 | 33 |  | 4 | 8 | 9 |  | 187 µg | 51.7 C |  |  |  |  |  |  |  |  |  |  | < 3 | < 3 |
| MASIVVPGSAAAADNPYQRGPNPTQASVAANRGTFATAETSVGGGNGFGGAKIYYPTDTSQGTFGAIAVVPGYTATWAAEGAWMGHWLSSFGFVVIGIDTNSRNDNDTARGTQLLAALDYLTQRSSVRARVDPNRLAVMGHSMGGGGAISAALRRPTLKAAIGNAPFSPSQNLSTMRVPTALLAGQRDGTVTPSLVSGYYNQIPASTEKMYLELTGAGHGFPTSNNSVATRKWVPWMKIFLDQDTRYQQFLCPLLDNTGISAYRSTCPLIPGDPAPGTTFSLAGSASGKCVDVPGGTQTNGAGLIIWPCRGVTNQRWAQTAAGELRIYDNAKCMDANASGQGARVTINSCHGGASQKWTVNTNGTVTNSASGRCLEAVGTADDAPVVVNTCNGGSGQTWAKRA [TEP164] | 7 | 25 | 31 |  | < 3 | < 3 | < 3 |  | 192 µg | 64 C |  |  |  |  |  |  |  |  |  |  | < 3 | < 3 |
| DEIGQAPTSSNITGNGSFSVSTYNISSLVTGFGGGVAYYPSTAGRYPVVAVSPGFTARWSSISWIGPRLASWGFVVVGIETNSVYDQPASRGSQLLAALNWAVNSAPSAITSRADGSRRGVAGHSMGGGGTLEALAADTTGNVKAGVPLAPWNSDKTWNNVNEPVQIIGGESDTVAGVSSHSIPFYNSLGGSKSYVELNGASHFFPQTTNATTSRALVSWFKRWLNQDARFTPFTCGYGGTAVSDFRTNAC [ESM177] | < 3 | 13 | 42 |  | < 3 | < 3 | 7 |  | 71.4 µg | 54.4 C |  |  |  |  |  |  |  |  |  |  | < 3 | < 3 |
| ADNPYQRGPDPTLASVAANRGTFATAQLSVPGDGFGSGVIYYPTDTSQTFGAVAIVPGYSALFSVEEAWMGHWLASFGFVVIGIETISRSDSADARATQLLAALDYLTQRSSVRSRVDASRLSIIGHSAGGAGVLTAVLRRPTLKAAVGLAPGSPVGNYNLSSDRVPTMFISGQRDTTVSQSYLNGIYPTIPASTPSAWVELTGGDHLFPTRANTNMMRVLIPWLKIFVDNDTRYTQFLCPLMDSSGISMYRNKCPYVPTSPSPSPSTSPSPSVSPSPSPSASPSPSPSPSTSPSPQPSGACSATYRTVNSWSGGYQAEVTVTAGSSAINRWSVRWTLSSGQSISQVWNGTLSAGGSSVTVANASYNGSLPASGTTTFGFLANGAPSTPTLTCTSP [ESM034] | < 3 | < 3 | < 3 |  | < 3 | < 3 | < 3 |  | 392 µg | 59.8 C | < 3 | < 3 | < 3 |  | < 3 | < 3 | < 3 |  | < 3 | < 3 | < 3 | < 3 |
| DEIGQAPTSSNITGNGSFSVATYNISSLVSGFGGGVAYYPTTSGRYPVIAVSPGFTARWSSISWIGPRLASWGFVVVGIETNSIYDQPGSRGSQLLAALNWAVNSAPSSVRDRVDGSRRGVAGHSMGGGGTLEALAADTTGLVKAGVPIAPWNTDTTWGGLNEAVQIVGGESDTIAPVSSHSIPFYSTLGGPKSYVELNGASHFFPQTSNSTLSRALVSWFKRYLNNDARFTPFTCGYSGLSISDFRSNNC [ESM144] | < 3 | < 3 | 6 |  | < 3 | < 3 | < 3 |  | 89.1 µg | 50.2 C |  |  |  |  |  |  |  |  |  |  | < 3 | < 3 |
